Results published in the supplement of paper PMC9732359.
± gives the uncertainty stated by the source.

Assay: protein stability index of a GFP-peptide fusion (yeast GPS) (PSI 1-4); higher = more stable; sorted into four equal gates, so the index is relative within each strain
Method in brief: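 Plasmids isolated from each sorting gate were PCR-amplified and Illumina-sequenced, and barcodes assigned the reads to strains. The gates, four of equal size, were set by GFP/Cherry fluorescence ratio on mid-log cultures in leucine-free medium. These cultures were yeast carrying a pooled library of tiled 17-residue yeast protein peptides fused downstream of GFP on a plasmid that also expresses Cherry. The protein stability index is the sum of every gate's read frequency times its gate number.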

Sequence | protein stability index (doa10∆) | protein stability index (pdr5∆) | protein stability index (san1∆) | protein stability index (ubr1∆)
ENSEPPALESSPVTGDN [SNF2] | 3.3 ± 0.075 | 3.24 ± 0.073 | 3.19 ± 0.067 | 3.22 ± 0.062
RVLQLLAVIMDNIGEID [YCG1] | 1.93 ± 0.073 | 1.63 ± 0.067 | 1.46 ± 0.17 | 1.52 ± 0.046
IYQIHIPYAAKLLFQEL [RPB2] | 2.64 ± 0.12 | 1.98 ± 0.12 | – | 2.88 ± 0.077
AVDKVISGYKKFSSTSR [RPT1] | 3.46 ± 0.27 | 3.87 ± 0.23 | 3.21 ± 0.16 | 3.74 ± 0.14
LQNCCIIDVGTHHTDII [ARP9] | 1.43 ± 0.11 | 1.9 ± 0.07 | 1.51 ± 0.15 | 2.28 ± 0.066
KTLVALEKQEDYIDNLV [RPC37] | 3.23 ± 0.11 | 2.97 ± 0.14 | 2.97 ± 0.16 | 3.07 ± 0.11
AFIDERASDLRMTIRTR [RRP43] | 1.81 ± 0.18 | 1.57 ± 0.11 | 1.24 ± 0.25 | 1.39 ± 0.12
NAEKTGKRQVLIRPSSK [RPS22A] | 3.28 ± 0.16 | 3.26 ± 0.12 | 3.13 ± 0.14 | 3.03 ± 0.075
KPAFSFGINTNTTKTAD [YLR335W/NUP2] | 2.98 ± 0.098 | 3.09 ± 0.1 | 3.11 ± 0.063 | 3.46 ± 0.064
QNNLPPNFFLTLISENW [BRR2] | 2.94 ± 0.073 | 3.13 ± 0.069 | 2.91 ± 0.071 | 2.94 ± 0.072
QSRVPTSLTSIKWENAF [PRP8] | 3.21 ± 0.077 | 3.3 ± 0.11 | 3.44 ± 0.072 | 3.18 ± 0.048
LPSEERIQKIISKRKEE [YIL149C/MLP2] | 1.74 ± 0.08 | 1.66 ± 0.074 | 1.41 ± 0.16 | 1.65 ± 0.055
NMNNGGKELDSLDLNNL [PGD1] | 3.06 ± 0.11 | 3.24 ± 0.11 | 3.06 ± 0.079 | 3.26 ± 0.065
LSCQYDNTVRTSANGIV [RPO31] | 1.32 ± 0.19 | 1.26 ± 0.14 | – | –
KAKKLIQSLPPTLKVNR [RPL38] | 2.13 ± 0.039 | 2.18 ± 0.039 | 2.02 ± 0.048 | 2.27 ± 0.036
QQEAKYRNNEPAGFTHK [YDL088C/ASM4] | 2.88 ± 0.052 | 2.98 ± 0.046 | 2.6 ± 0.059 | 2.83 ± 0.045
SFSLTVSKEQFLKDADV [YJL039C/NUP192] | 1.47 ± 0.041 | 1.45 ± 0.056 | 1.54 ± 0.11 | 1.64 ± 0.045
PELGDKFSSRHGQKGVC [RET1] | 3.26 ± 0.12 | 3.42 ± 0.12 | 2.99 ± 0.14 | 3.09 ± 0.1
DLKAQFQELDSKKQRNN [RPN9] | 3.21 ± 0.088 | 3.2 ± 0.08 | 3.09 ± 0.078 | 3.33 ± 0.052
RIYTNSFIDIMEVLGIE [RPO21] | 2.84 ± 0.059 | 2.94 ± 0.052 | 3.02 ± 0.045 | 2.81 ± 0.041
LSLHTGFIENCNGSALV [MTR3] | 2.65 ± 0.066 | 3 ± 0.06 | 2.79 ± 0.058 | 2.74 ± 0.067
PQYQYQRRYVIKEKVQF [ITC1] | 1.56 ± 0.069 | 1.88 ± 0.047 | 1.79 ± 0.095 | 1.47 ± 0.03
TTQRRYEKAQKDLENAQ [SMC1] | 3.05 ± 0.098 | 3.31 ± 0.069 | 3.2 ± 0.052 | 3.14 ± 0.1
DLSMVPKMKDEEYDDDD [SNF2] | 2.9 ± 0.13 | 3.22 ± 0.14 | 3.24 ± 0.098 | 2.99 ± 0.12
EPELRVLSTEEILNIFK [RPO21] | 3.43 ± 0.22 | 3.45 ± 0.17 | 3.51 ± 0.084 | 3.55 ± 0.23
VVSTTAVIESVVNQPTG [FAS1] | 2.06 ± 0.078 | 1.82 ± 0.087 | 1.99 ± 0.11 | 2.1 ± 0.079
ELLEERFQDSNPYVRTK [YCS4] | 1.48 ± 0.037 | 1.76 ± 0.11 | 2.82 ± 0.076 | 2.8 ± 0.096

Sequence | protein stability index (doa10∆) | protein stability index (pdr5∆) | protein stability index (san1∆) | protein stability index (ubr1∆)
NNIEENLRLLNSIDSTS [ECM29] | 3.21 ± 0.06 | 3.33 ± 0.057 | 3.18 ± 0.044 | 3.21 ± 0.046
GGVDVGPSVESYELRNT [SNF5] | 2.9 ± 0.1 | 3.15 ± 0.11 | 3.04 ± 0.075 | 3.28 ± 0.079
QLNEERSRYRREIDALK [YIL149C/MLP2] | 3.44 ± 0.092 | 3.25 ± 0.065 | 3.24 ± 0.045 | 3.25 ± 0.035
ADLSSSEEEEDEEENGS [SSN2] | 3.36 ± 0.087 | 3.51 ± 0.12 | 3.59 ± 0.084 | 3.29 ± 0.064
TYGFLTPNLWAEQPLPV [RPS2] | 1.21 ± 0.056 | 1.38 ± 0.081 | 1.37 ± 0.11 | 1.54 ± 0.059
NWLSIFNDFSNIKTSEW [REC8] | 2.67 ± 0.082 | 2.95 ± 0.061 | 2.94 ± 0.091 | 2.91 ± 0.085
EYDTPALFFDPSLNPIP [PRP8] | 2.82 ± 0.056 | 2.87 ± 0.036 | 2.65 ± 0.048 | 2.69 ± 0.036
TLGNLIRAELLNDRKVL [RPB11] | 3.06 ± 0.17 | 2.74 ± 0.25 | 3.08 ± 0.15 | 2.87 ± 0.23
NEIIRSLSDEVMRNEIR [SIR4] | 2.64 ± 0.058 | 2.1 ± 0.048 | 2.52 ± 0.068 | 2.39 ± 0.049
LYASDYASYFPYLLETY [RPN7] | 1.62 ± 0.077 | 1.83 ± 0.086 | 1.39 ± 0.09 | 1.18 ± 0.044
SNEICDLAYQYVRALEL [SRB2] | 2.92 ± 0.047 | 2.77 ± 0.037 | 2.88 ± 0.046 | 3.08 ± 0.042
KFMELERKTLERQQENL [SWI3] | 2.76 ± 0.17 | 3.23 ± 0.1 | 3.06 ± 0.09 | 3.12 ± 0.071
RERRIHVTQEDFELAVG [RPT6] | 2.38 ± 0.074 | 2.74 ± 0.06 | 2.08 ± 0.074 | 2.61 ± 0.066
FRVNNASINTSATVKTS [ECM29] | – | – | 1.95 ± 0.17 | –
HASKAIGLPRHSLAYLL [RRP6] | 2.24 ± 0.046 | 2.2 ± 0.048 | 2.37 ± 0.059 | 1.72 ± 0.037
GISEVQARKSKSVSFYA [RPT5] | 3.4 ± 0.064 | 3.39 ± 0.093 | 3.37 ± 0.056 | 3.31 ± 0.063
SSLEARYFFYLSKINAI [RPN3] | 1.74 ± 0.05 | 2.17 ± 0.064 | 1.95 ± 0.1 | 1.75 ± 0.042
KEYELLTLQEDYIKDEQ [RPT3] | 3.53 ± 0.12 | 3.13 ± 0.11 | 3.19 ± 0.083 | 3.25 ± 0.065
TTIQTEKVRPTPGEVAS [MCD1] | 2.74 ± 0.043 | 2.44 ± 0.041 | 2.8 ± 0.04 | 2.84 ± 0.034
LWGPHGLNSDAEEVRNF [ECM29] | 3.77 ± 0.29 | 3.59 ± 0.15 | 3.5 ± 0.27 | 3.82 ± 0.16
KKKRFEIKKWTAVAFWS [HRT1] | 1.97 ± 0.18 | 1.58 ± 0.12 | 1.55 ± 0.26 | 2.27 ± 0.1
NENRNTGAGVDVNTNAN [SNF11] | 3.11 ± 0.062 | 3.42 ± 0.06 | 3.15 ± 0.039 | 3.36 ± 0.054
GTQQSNMYTSTQKTELE [SIR4] | 2.96 ± 0.049 | 3.12 ± 0.047 | 2.95 ± 0.048 | 3 ± 0.053
EGDELENKTKKDNDKNL [SRB4] | 3.33 ± 0.078 | 3.2 ± 0.077 | 3.23 ± 0.055 | 3.27 ± 0.077
ELKINLPLTEHKSPNLS [SRB4] | 2.93 ± 0.077 | 3.17 ± 0.051 | 2.87 ± 0.041 | 2.98 ± 0.058
EFYNEMHRPVHFLQFSE [PRP8] | 2.9 ± 0.086 | 2.51 ± 0.089 | 2.27 ± 0.067 | 2.33 ± 0.058
EAAAVRDLSEASVYPEY [RPS26A] | 2.25 ± 0.076 | 2.53 ± 0.082 | 2.65 ± 0.076 | 2.93 ± 0.09
